# Test results: patent US20250042970A1 (AURINIA PHARMACEUTICALS, published 2025)
# B1: BAv9-1 CRD-IgG4 Fc (Fc fusion)
# chain: AGQCSQNEYFDHLIRACIPCQLRCSSNTPPLTCQRYCNAGVTNSVGGGGSAESKYGPPCPPCPAPEAAGGPSVFLFPPKPKDTLMISRTPEVTCVVVDVSQEDPEVQFNWYVDGVEVHNAKTKPREEQFNSTYRVVSVLTVLHQDWLNGKEYKCKVSNKGLPSSIEKTISKAKGQPREPQVYTLPPSQEEMTKNQVSLTCLVKGFYPSDIAVEWESNGQPENNYKTTPPVLDSDGSFFLYSRLTVDKSRWQEGNVFSCSVMHEALHNHYTQKSLSLSPGK
# notes: mature expressed protein; also called BAv9-1 CRD-Ig Fc; exemplary BCMA CRD variant-IgG4 fusion protein
# Assays:
# [1] = molecular target: T1, murine BAFF (Examples 22-23) (mouse, UniProt Q9WU72 127-309); assay: SPR (Carterra LSA, HC30M chip)
# Method: (§1) The KD of a BAv9-1 CRD-IgG4 Fc fusion protein, and other BAFF or APRIL binding molecules, the BAFF/APRIL binding molecule Atacicept and a different recombinant TACI-Fc fusion protein RC18 (also known as Telitacicept), to human or murine BAFF or human or murine APRIL were determined by surface plasmon resonance (Carterra LSA, HC30M sensor chip).
# [2] = molecular target: T2, human BAFF (Examples 21-23) (human, UniProt Q9Y275 134-285); assay: SPR (Carterra LSA, HC30M chip)
# T2 construct: also called huBAFF
# Method: as §1
# [3] = molecular target: T3, human APRIL (Examples 21-23) (human, UniProt O75888 105-250); assay: SPR (Carterra LSA, HC30M chip)
# T3 construct: also called huAPRIL
# T3 sequence: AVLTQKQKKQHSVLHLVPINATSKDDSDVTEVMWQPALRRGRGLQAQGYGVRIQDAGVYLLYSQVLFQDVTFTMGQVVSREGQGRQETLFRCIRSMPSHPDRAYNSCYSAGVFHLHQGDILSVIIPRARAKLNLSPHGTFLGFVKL
# Method: as §1
# [4] = molecular target: T2, human BAFF (Examples 21-23); assay: assay not given (Example 21)
# [5] = molecular target: T3, human APRIL (Examples 21-23); assay: assay not given (Example 21)
# [6] = molecular target: T2, human BAFF (Examples 21-23); assay: ratio of KD values of Table 11, assay not stated (Example 21); reference Atacicept
# [7] = molecular target: T3, human APRIL (Examples 21-23); assay: as above
# [8] = molecular target: T2, human BAFF (Examples 21-23); assay: assay not given (Example 21); remark: listed apart in the source
# [9] = molecular target: T3, human APRIL (Examples 21-23); assay: assay not given (Example 21); remark: listed apart in the source
# [10] = molecular target: human BAFF-60mer (Adipogen) (human, UniProt Q9Y275 134-285); assay: cell-based or functional assay
# [11] = molecular target: human BAFF (Acros Biosystems) (human, UniProt Q9Y275 134-285); assay: cell-based or functional assay
# [12] = molecular target: T4, human APRIL (Acros Biosystems) (human, UniProt O75888 115-250, limits assumed); assay: cell-based or functional assay
# T4 sequence: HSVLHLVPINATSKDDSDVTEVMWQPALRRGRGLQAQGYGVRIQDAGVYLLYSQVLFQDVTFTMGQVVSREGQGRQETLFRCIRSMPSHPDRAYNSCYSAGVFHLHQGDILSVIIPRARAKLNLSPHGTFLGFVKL
# [13] = molecular target: T5, murine APRIL (Examples 22-23) (mouse, UniProt Q9D777 96-241); assay: SPR (Carterra LSA, HC30M chip); murine ligand (Table 13)
# T5 sequence (looked up): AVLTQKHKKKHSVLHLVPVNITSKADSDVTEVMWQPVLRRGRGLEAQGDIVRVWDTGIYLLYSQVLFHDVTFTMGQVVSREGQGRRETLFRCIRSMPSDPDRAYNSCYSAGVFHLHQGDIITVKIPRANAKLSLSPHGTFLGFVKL
# Method: as §1
# [14] = molecular target: T1, murine BAFF (Examples 22-23); assay: colorimetric ELISA, inhibition curves
# Text: (§2) A colorimetric ELISA was used to assess the binding of BAFF/APRIL binding molecules to human and murine BAFF and APRIL. Inhibition curves based on binding to soluble human and murine BAFF and APRIL were used to determine the IC₅₀ values for binding of the exemplary BCMA CRD variant-IgG4 fusion protein BAv9-1 CRD-IgG4 Fc, Atacicept and a different recombinant TACI-Fc fusion protein RC18 (also known as Telitacicept).
# (§3) FIG. 34A and FIG. 34B show the inhibition curves of the three different BAFF/APRIL binding molecules to murine BAFF (FIG. 34A) and murine APRIL (FIG. 34B). Compared to the IC₅₀ values determined for Atacicept and RC18 (Telitacicept), the IC₅₀ of the exemplary BCMA CRD variant-IgG4 fusion protein BAv9-1 CRD-IgG4 Fc was orders of magnitude lower for both murine BAFF and murine APRIL. The IC₅₀ values for BAv9-1 CRD-IgG4 Fc for murine BAFF and murine APRIL were 1.5 nM and 2.7 nM respectively.
# [15] = molecular target: T5, murine APRIL (Examples 22-23); assay: colorimetric ELISA, inhibition curves
# Text: as §2, §3
# [16] = molecular target: T3, human APRIL (Examples 21-23); assay: colorimetric ELISA, inhibition curves
# Text: as §2, §3
# T1 sequence (Q9WU72 127-309 limits assumed): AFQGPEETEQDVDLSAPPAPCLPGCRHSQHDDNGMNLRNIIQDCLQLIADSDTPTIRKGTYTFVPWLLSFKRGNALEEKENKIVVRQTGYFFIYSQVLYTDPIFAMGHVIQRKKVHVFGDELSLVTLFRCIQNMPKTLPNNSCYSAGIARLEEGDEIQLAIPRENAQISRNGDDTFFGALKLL
binder,measurement,setting,value
B1,Kd,[1],0.031 nM
same,Kd,[2],0.117 nM
same,Kd,[3],0.025 nM
same,Kd,[4],0.00024 nM
same,Kd,[5],0.00015 nM
same,fold higher binding affinity compared to Atacicept,[6],600 to 800 fold
same,fold higher binding affinity compared to Atacicept,[7],600 to 800 fold
same,fold higher binding affinity vs Atacicept,[8],600 to 800 fold
same,fold higher binding affinity vs Atacicept,[9],600 to 800 fold
same,"IC50 for proliferation of stimulated B cells, Donor 1, BAFF-60mer + anti-IgM",[10],0.835 nM
same,"IC50 for proliferation of stimulated B cells, Donor 2, BAFF-60mer + anti-IgM",[10],0.577 nM
same,"IC50 for proliferation of stimulated B cells, Donor 3, BAFF-60mer + anti-IgM",[10],0.61 nM
same,"IC50 for proliferation of stimulated B cells, Donor 1, BAFF + anti-IgM",[11],0.311 nM
same,"IC50 for proliferation of stimulated B cells, Donor 2, BAFF + anti-IgM",[11],0.000215 nM
same,"IC50 for proliferation of stimulated B cells, Donor 3, BAFF + anti-IgM",[11],0.0201 nM
same,"IC50 for proliferation of stimulated B cells, Donor 1, APRIL + anti-IgM",[12],0.662 nM
same,"IC50 for proliferation of stimulated B cells, Donor 2, APRIL + anti-IgM",[12],0.226 nM
same,"IC50 for proliferation of stimulated B cells, Donor 3, APRIL + anti-IgM",[12],0.366 nM
same,Kd,[13],0.00015 nM
same,IC50,[14],1.5 nM
same,IC50,[15],2.7 nM
same,IC50,[16],0.002 nM
